According to paper PMC3756924 (Molecular Biology of the Cell, 2013):

B1: hexahistidine (His6)-Sit4p (enzyme, S. cerevisiae, UniProt P20604 1-311, looked up)
chain: MVSRGPDEWLETIKKCQALTENEMKQLCEMVKELLMEESNIQPVQTPVTVCGDIHGQFHDLLELFRTAGGFPDDINYIFLGDYVDRGYYSLETFTLLMCLKVKYPAKITLVRGNHESRQITQVYGFYEECLNKYGSTTVWKYCCQVFDFLTLAAIIDGKILCVHGGLSPEIRMLDQIRVLSRAQEVPHEGGFSDLLWSDPDNVEAWQVSPRGAGWLFGSKVAREFNHVNGLNLIARAHQLVMEGFKYHFPEKDVVTVWSAPNYCYRCGNVASVMKVDEDLEPTFKIFSAVPDDYIRESTANHNNQRAGYFL

What was measured:
Experiment in all cases: pull-down
GST-Sec31p (aa 1–500) = target: T1, GST-Sec31p (aa 1–500) (S. cerevisiae, UniProt P38968 1-500)
T1 sequence (looked up): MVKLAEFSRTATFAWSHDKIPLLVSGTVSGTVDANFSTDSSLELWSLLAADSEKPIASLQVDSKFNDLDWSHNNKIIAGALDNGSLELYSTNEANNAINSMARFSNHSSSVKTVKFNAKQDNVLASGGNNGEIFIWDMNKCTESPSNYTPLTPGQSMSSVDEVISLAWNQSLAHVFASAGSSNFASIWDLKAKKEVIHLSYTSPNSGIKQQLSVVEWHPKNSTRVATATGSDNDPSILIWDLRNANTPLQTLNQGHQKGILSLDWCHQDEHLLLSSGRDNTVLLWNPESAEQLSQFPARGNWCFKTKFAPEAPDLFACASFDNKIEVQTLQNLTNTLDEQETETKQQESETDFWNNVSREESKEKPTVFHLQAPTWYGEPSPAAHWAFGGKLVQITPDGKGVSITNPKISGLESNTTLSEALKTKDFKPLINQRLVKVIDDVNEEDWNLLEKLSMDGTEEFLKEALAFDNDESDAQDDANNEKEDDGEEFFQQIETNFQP

GST-Sec23p = target: T2, GST-Sec23p (S. cerevisiae, UniProt P15303 1-768)
T2 sequence (looked up): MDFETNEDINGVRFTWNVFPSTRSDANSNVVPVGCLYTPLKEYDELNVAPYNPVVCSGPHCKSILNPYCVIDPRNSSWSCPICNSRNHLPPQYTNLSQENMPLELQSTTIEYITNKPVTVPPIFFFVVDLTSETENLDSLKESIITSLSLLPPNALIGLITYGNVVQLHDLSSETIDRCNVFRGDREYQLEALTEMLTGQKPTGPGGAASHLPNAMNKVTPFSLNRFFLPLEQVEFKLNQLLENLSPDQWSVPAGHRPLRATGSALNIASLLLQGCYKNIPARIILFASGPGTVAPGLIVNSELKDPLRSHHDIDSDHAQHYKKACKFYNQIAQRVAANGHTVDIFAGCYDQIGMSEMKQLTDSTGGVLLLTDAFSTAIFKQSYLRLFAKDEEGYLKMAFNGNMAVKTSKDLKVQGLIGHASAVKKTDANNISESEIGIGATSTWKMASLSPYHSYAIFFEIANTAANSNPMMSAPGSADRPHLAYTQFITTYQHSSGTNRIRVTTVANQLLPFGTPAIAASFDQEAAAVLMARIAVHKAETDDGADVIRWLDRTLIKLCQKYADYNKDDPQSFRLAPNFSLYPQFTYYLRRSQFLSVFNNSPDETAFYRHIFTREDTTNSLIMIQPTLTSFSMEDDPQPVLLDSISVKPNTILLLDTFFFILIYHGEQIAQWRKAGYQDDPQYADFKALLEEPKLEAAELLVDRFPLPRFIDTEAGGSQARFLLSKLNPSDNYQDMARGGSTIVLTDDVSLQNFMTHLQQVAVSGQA

GST-Lst1p = target: T3, GST-Lst1p (S. cerevisiae, UniProt P38810 1-929)
T3 sequence (looked up): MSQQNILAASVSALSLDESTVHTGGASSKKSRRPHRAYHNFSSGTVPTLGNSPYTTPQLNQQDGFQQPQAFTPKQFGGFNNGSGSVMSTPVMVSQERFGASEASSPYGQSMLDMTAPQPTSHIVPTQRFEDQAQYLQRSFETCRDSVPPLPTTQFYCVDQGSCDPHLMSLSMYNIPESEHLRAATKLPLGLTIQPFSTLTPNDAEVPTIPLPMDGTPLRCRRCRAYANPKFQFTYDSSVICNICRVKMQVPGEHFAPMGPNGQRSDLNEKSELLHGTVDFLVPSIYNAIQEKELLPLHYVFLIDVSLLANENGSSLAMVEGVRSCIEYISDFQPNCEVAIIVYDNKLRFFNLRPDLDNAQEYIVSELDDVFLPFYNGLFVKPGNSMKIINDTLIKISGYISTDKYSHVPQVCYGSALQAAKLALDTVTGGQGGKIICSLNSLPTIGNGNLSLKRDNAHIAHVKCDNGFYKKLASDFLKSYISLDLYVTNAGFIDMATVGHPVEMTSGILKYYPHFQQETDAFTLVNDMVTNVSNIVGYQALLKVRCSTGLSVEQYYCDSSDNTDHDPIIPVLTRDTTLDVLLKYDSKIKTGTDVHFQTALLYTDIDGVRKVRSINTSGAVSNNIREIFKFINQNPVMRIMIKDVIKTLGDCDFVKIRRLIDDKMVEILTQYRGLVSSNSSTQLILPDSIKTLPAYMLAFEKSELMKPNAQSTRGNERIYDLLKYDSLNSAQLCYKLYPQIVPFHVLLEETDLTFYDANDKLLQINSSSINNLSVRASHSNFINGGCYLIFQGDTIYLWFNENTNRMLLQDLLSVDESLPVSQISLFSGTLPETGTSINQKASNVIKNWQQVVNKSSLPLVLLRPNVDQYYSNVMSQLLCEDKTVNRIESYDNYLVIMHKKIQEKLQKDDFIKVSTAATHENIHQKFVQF

GST-Sec24p = target: T4, GST-Sec24p (S. cerevisiae, UniProt P40482 1-926)
T4 sequence (looked up): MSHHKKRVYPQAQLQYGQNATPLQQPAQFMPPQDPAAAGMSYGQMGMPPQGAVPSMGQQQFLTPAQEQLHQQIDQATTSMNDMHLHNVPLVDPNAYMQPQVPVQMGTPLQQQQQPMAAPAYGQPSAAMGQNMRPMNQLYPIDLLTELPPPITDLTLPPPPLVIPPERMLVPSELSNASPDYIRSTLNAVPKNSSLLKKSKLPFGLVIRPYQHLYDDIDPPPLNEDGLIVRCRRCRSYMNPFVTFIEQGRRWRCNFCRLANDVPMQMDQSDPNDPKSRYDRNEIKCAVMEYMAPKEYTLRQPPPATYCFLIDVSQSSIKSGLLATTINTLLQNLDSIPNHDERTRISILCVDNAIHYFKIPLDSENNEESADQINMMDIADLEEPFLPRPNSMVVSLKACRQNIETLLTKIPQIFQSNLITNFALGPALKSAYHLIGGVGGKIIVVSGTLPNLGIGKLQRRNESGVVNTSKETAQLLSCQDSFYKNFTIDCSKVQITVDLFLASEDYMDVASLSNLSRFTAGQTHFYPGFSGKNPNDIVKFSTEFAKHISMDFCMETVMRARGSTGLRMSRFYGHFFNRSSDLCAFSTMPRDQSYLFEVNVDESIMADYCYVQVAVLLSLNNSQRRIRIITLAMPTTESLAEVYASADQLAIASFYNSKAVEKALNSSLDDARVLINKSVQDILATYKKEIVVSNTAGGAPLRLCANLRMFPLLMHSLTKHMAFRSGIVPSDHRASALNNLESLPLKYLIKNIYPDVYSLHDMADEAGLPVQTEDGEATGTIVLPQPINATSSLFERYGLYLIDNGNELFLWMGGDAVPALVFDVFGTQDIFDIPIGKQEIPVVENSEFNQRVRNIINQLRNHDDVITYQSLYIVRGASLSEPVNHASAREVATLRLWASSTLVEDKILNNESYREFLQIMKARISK

[1] = target: B1

Row | Binder | binding result (GST-Sec31p (aa 1–500)) | binding result (GST-Sec23p) | binding result (GST-Lst1p) | binding result (GST-Sec24p) | binding result [1]
1 | B1 | binds | binds | binds | binds | 
2 | GST-Sec31p (aa 1115–1273) (domain or fragment, S. cerevisiae, UniProt P38968 1115-1273, looked up) RSNKLASIEQNPSQGATYPPTLSSSASPLQPSQPPTLASQVNTSAENVSHEIPADQQPIVDFLKEELARVTPLTPKEYSKQLKDCDKRLKILFYHLEKQDLLTQPTIDCLHDLVALMKEKKYKEAMVIHANIATNHAQEGGNWLTGVKRLIGIAEATLN |  |  |  |  | binds
